B1: Lysozyme C, P61626 (parent)
chain: MKALIVLGLVLLSVTVQGKVFERCELARTLKRLGMDGYRGISLANWMCLAKWESGYNTRATNYNAGDRSTDYGIFQINSRYWCNDGKTPGAVNACHLSCSALLQDNIADAVACAKRVVRDPQGIRAWVAWRNRCQNRDVRQYVQGCGV

Variants of: B1
Settings: Homo sapiens, Thermal, DSC, reversible: yes, structure 1LZ1, whole UniProt chain shown; for ddG of mutation (higher = less stable) / unfolding free energy: 65 °C
[1] = pH 2.2, glycine hydrochloride 0.05 M
[2] = pH 2.3, glycine hydrochloride 0.05 M, KCl 0.2 M
[3] = pH 4.5, sodium acetate 0.02 M, KCl 0.2 M

| Variant | Tm [1] [°C] | change of melting temperature, mutant - wild type (higher = more stable) [1] [°C] | Tm [2] [°C] | change of melting temperature, mutant - wild type (higher = more stable) [2] [°C] | ddG of mutation (higher = less stable) (pH 4, sodium acetate 0.02 M) [kcal/mol] | unfolding free energy (pH 4, sodium acetate 0.02 M) [kcal/mol] | Tm (pH 4, sodium acetate 0.02 M) [°C] | change of melting temperature, mutant - wild type (higher = more stable) (pH 4, sodium acetate 0.02 M) [°C] | ddG of mutation (higher = less stable) [3] [kcal/mol] | unfolding free energy [3] [kcal/mol] | Tm [3] [°C] | change of melting temperature, mutant - wild type (higher = more stable) [3] [°C] |
| --- | --- | --- | --- | --- | --- | --- | --- | --- | --- | --- | --- | --- |
| MKALIVLGLVLLSVTVQGKVFERCELARTLKRLGMDGYRGISLANWMCLAKWESGYNTRATNYNAGDRSTDYGIFQINSRYWCNDGKTPGAVNACHLSCSALLQDNIADAVACAKRVVRDPQGIRAWVAWRNRCQNRNVRQYVQGCGV [D138N] | 57.8 | 0.3 | 56.9 | 0.7 | 0.67 | 4.76 | 78.3 | -1.8 | -0.05 | 4.13 | 77.8 | 0.1 |
| MKALIVLGLVLLSVTVQGKVFERCELARTLKRLGMDGYRGISLANWMCLAKWESGYNTRATNYNAGDRSTDYGIFQINSRYWCNDGKTPGAVNACHLSCSALLQDNIADAVACAKRVVRNPQGIRAWVAWRNRCQNRDVRQYVQGCGV [D120N] | 58.1 | 0.6 | 56.7 | 0.5 | 0.67 | 4.76 | – | – | -0.07 | 4.13 | 77.9 | 0.2 |
| MKALIVLGLVLLSVTVQGKVFERCELARTLKRLGMDGYRGISLANWMCLAKWESGYNTRATNYNAGNRSTDYGIFQINSRYWCNDGKTPGAVNACHLSCSALLQDNIADAVACAKRVVRDPQGIRAWVAWRNRCQNRDVRQYVQGCGV [D67N] | 57.5 | 0 | – | – | 1 | 4.42 | 77.4 | -2.7 | – | – | – | – |
| MKALIVLGLVLLSVTVQGKVFERCELARTLKRLGMNGYRGISLANWMCLAKWESGYNTRATNYNAGDRSTDYGIFQINSRYWCNDGKTPGAVNACHLSCSALLQDNIADAVACAKRVVRDPQGIRAWVAWRNRCQNRDVRQYVQGCGV [D36N] | 56 | -1.5 | – | – | – | – | 75.5 | -4.6 | – | – | – | – |
| MKALIVLGLVLLSVTVQGKVFERCELARTLKRLGMDGYRGISLANWMCLAKWESGYNTRATNYNAGDRSTDYGIFQINSRYWCNNGKTPGAVNACHLSCSALLQDNIADAVACAKRVVRDPQGIRAWVAWRNRCQNRDVRQYVQGCGV [D85N] | 56.8 | -0.7 | 55.2 | -1 | 2.25 | 3.18 | 74 | -6.1 | 1.7 | 2.37 | 72.5 | -5.2 |
| MKALIVLGLVLLSVTVQGKVFERCQLARTLKRLGMDGYRGISLANWMCLAKWESGYNTRATNYNAGDRSTDYGIFQINSRYWCNDGKTPGAVNACHLSCSALLQDNIADAVACAKRVVRDPQGIRAWVAWRNRCQNRDVRQYVQGCGV [E25Q] | 57.8 | 0.3 | 54.6 | -1.6 | 1.43 | 3.99 | 76.2 | -3.9 | 1.29 | 2.77 | 75.5 | -2.2 |
